Patent US12134788B2, “Engineered prephenate dehydrogenases and arogenate dehydrogenases and methods of using the same” (Wisconsin Alumni Research Foundation, priority 2017, dated 2024)

Experiments:
Conditions in all cases: other: 0.5 mM NADP^+, pH 7.6, 37° C.
[1] = substrate: N[C@@H](CC1(C(=O)O)C=CC(O)C=C1)C(=O)O; experiment: ADH and PDH assay: steady-state kinetics and Tyr inhibition, SolyncADH D224N; type: biochemical, Solanum lycopersicum (tomato)
Method: (§1) Kinetic parameters of purified recombinant proteins were determined from assays conducted at varying arogenate (19.5 μM-5 mM) and prephenate concentration (23.4 μM-6 mM). Standard assay conditions were 25 mM HEPES pH 7.6, 50 mM KCl and 10% (v/v) ethylene glycol, and 0.5 mM NADP^+ with varied substrate, concentrations. Reactions were initiated by addition of enzyme and incubated at 37° C. monitored every 10-15 seconds at […] using a microplate reader (Tecan Genios). Kinetic parameters were determined by fitting initial velocity data to the Michaelis-Menten equation using the Origin software (OriginLab).
(§2) Arogenate was prepared by enzymatic conversion of prephenate (Sigma-Aldrich) as previously reported^56. For Tyr inhibition assays, Tyr was dissolved in a slightly basic solution (0.025 N NaOH) due to solubility issues, thus the concentration of lysis buffer was increased to 500 mM HEPES final concentration to buffer against the changes by addition of Tyr in the reaction. Reactions containing varying amounts of Tyr (10 μM-8 mM) with 0.5 mM NADP^+ and either 1 mM arogenate or 0.8 mM prephenate were monitored as above.

[2] = substrate: O=C(O)C(=O)CC1(C(=O)O)C=CC(O)C=C1; experiment: as above; type: biochemical, Solanum lycopersicum (tomato)
Method: as §1, §2

[3] = substrate: N[C@@H](CC1(C(=O)O)C=CC(O)C=C1)C(=O)O; experiment: ADH and PDH assay: steady-state kinetics and Tyr inhibition, GmncADH D218N; type: biochemical, Glycine max (soybean)
Method: as §1, §2

[4] = substrate: O=C(O)C(=O)CC1(C(=O)O)C=CC(O)C=C1; experiment: as above; type: biochemical, Glycine max (soybean)
Method: as §1, §2

[5] = substrate: N[C@@H](CC1(C(=O)O)C=CC(O)C=C1)C(=O)O; experiment: ADH and PDH assay: steady-state kinetics and Tyr inhibition, MtncADH D220C; type: biochemical, Medicago truncatula
Method: as §1, §2

[6] = substrate: O=C(O)C(=O)CC1(C(=O)O)C=CC(O)C=C1; experiment: as above; type: biochemical, Medicago truncatula
Method: as §1, §2

[7] = substrate: N[C@@H](CC1(C(=O)O)C=CC(O)C=C1)C(=O)O; experiment: ADH and PDH assay: steady-state kinetics and Tyr inhibition, MtPDH wild type; type: biochemical, Medicago truncatula
Method: as §1
(§3) Arogenate was prepared by enzymatic conversion of prephenate (Sigma-Aldrich) as previously reported^56. For Tyr inhibition assays, Tyr was dissolved in a slightly basic solution (0.025 N NaOH) due to solubility issues, thus the concentration of lysis buffer was increased to 500 mM HEPES final concentration to buffer against the changes by addition of Tyr in the reaction. […]

[8] = substrate: O=C(O)C(=O)CC1(C(=O)O)C=CC(O)C=C1; experiment: as above; type: biochemical, Medicago truncatula
Method: as §1, §3

[9] = substrate: N[C@@H](CC1(C(=O)O)C=CC(O)C=C1)C(=O)O; experiment: ADH and PDH assay: steady-state kinetics and Tyr inhibition, MtPDH C220D; type: biochemical, Medicago truncatula
Method: as §1, §2

[10] = substrate: O=C(O)C(=O)CC1(C(=O)O)C=CC(O)C=C1; experiment: as above; type: biochemical, Medicago truncatula
Method: as §1, §2

[11] = substrate: N[C@@H](CC1(C(=O)O)C=CC(O)C=C1)C(=O)O; experiment: ADH and PDH assay: steady-state kinetics and Tyr inhibition, GmPDH1 N222D; type: biochemical, Glycine max (soybean)
Method: as §1, §2

[12] = substrate: O=C(O)C(=O)CC1(C(=O)O)C=CC(O)C=C1; experiment: as above; type: biochemical, Glycine max (soybean)
Method: as §1, §2

[13] = substrate: O=C(O)C(=O)CC1(C(=O)O)C=CC(O)C=C1; experiment: ADH and PDH assay: steady-state kinetics and Tyr inhibition, GmPDH1 N222A; type: biochemical, Glycine max (soybean)
Method: as §1, §2

[14] = substrate: N[C@@H](CC1(C(=O)O)C=CC(O)C=C1)C(=O)O; experiment: ADH and PDH assay: steady-state kinetics and Tyr inhibition, GmPDH1 M219T; type: biochemical, Glycine max (soybean)
Method: as §1, §2

[15] = substrate: O=C(O)C(=O)CC1(C(=O)O)C=CC(O)C=C1; experiment: as above; type: biochemical, Glycine max (soybean)
Method: as §1, §2

[16] = substrate: N[C@@H](CC1(C(=O)O)C=CC(O)C=C1)C(=O)O; experiment: ADH and PDH assay: steady-state kinetics and Tyr inhibition, GmPDH1 M219T/N222D; type: biochemical, Glycine max (soybean)
Method: as §1, §2

[17] = substrate: O=C(O)C(=O)CC1(C(=O)O)C=CC(O)C=C1; experiment: as above; type: biochemical, Glycine max (soybean)
Method: as §1, §2

B1: Solanum lycopersicum SolyncADH variant D224N (Solanum lycopersicum; D224N) (protein)
chain: MSSSSSCQPKTLRIGIIGFGPFAQFLAKTMMKQGHCIHVTSRSDYSELCTDLGILFFRDMGAFLESDNEVIMISTSILSLSQVVESIPFNCLKRPTLFVDVLSVKEHPKDVLLRMMPRECDLLCTHPMFGPESGKDGWEDLTFMYDMVRIRDQPLCSSFLHIFSSEGCKMLEMTCEKHDRLAAQSQFLTHTIGRILSEMEVEPTPIDTKGFQKLVQVKESSVKNSFDLFSGLFIHNRFARQQMKNLEVALEKTKEKLQERSKELQDPIISKF
notes: D224N by site-directed mutagenesis
Km [1]: 1340 ± 480 µM
kcat [1]: 11.7 ± 0.2 s⁻¹
kcat/Km [1]: 8730 M⁻¹ s⁻¹
Km [2]: 2310 ± 100 µM
kcat [2]: 2.4 ± 1 s⁻¹
kcat/Km [2]: 1040 M⁻¹ s⁻¹

B2: Glycine max GmncADH variant D218N (Glycine max; D218N) (protein)
chain: MSTWSLKIGVVGFGSFGQFLAKTMIKQGHTLRATSRTDYSLLCLPMGIQFFRDVAAFLEADNDVILVCTSILSLSEVLSSMPLTCLKRSTLFVDVLSVKEHPRNLLIKVLPEESDILCTHPMFGPDSGKDGWQDLTFVYDKVRIRDEAICSSFLHIFASEGCRMLQMSCEEHDKIAAKSQFITHTIGRTLAEMDIKSTPIDTKGFHSLVQLKDTTIRNSFDLYSGLFLHNRFAVQELENLEHALHKVKEMLVQRKSEELGLEKTEC
notes: D218N by site-directed mutagenesis
Km [3]: 740 ± 140 µM
kcat [3]: 8.6 ± 0.2 s⁻¹
kcat/Km [3]: 11600 M⁻¹ s⁻¹
Km [4]: 1980 ± 50 µM
kcat [4]: 11.5 ± 0.5 s⁻¹
kcat/Km [4]: 5810 M⁻¹ s⁻¹

B3: Medicago truncatula MtncADH variant D220C, SEQ ID NO: 10 (Medicago truncatula; D220C) (protein)
chain: MSNSPSLKIGIVGFGSFGQFLAKTMIKQGHTLTATSRTDYSHTCLQLGIQFFRDVGTFIEANNDVILICTSIMSFTKVLSSMPLACLKKPTTLFVDVLSVKEHPREVLLRVLPEESDILCTHPMFGPESGKNGWKDLNFMYDKVRIHDEATCSNFLHIFASEGCKMLQMSCEEHDKIAAKSQFITHTIGRTLAEMDIESTPIDTKGFQTLTQLKNTTMRCSFDLYSGLFVHNRFAKQELENLQRALDRVKEMLVQRMREELGPEKD
notes: D220C by site-directed mutagenesis
Km [5]: 870 ± 30 µM
kcat [5]: 7 ± 0.8 s⁻¹
kcat/Km [5]: 8050 M⁻¹ s⁻¹
Km [6]: 740 ± 30 µM
kcat [6]: 10.1 ± 0.5 s⁻¹
kcat/Km [6]: 13600 M⁻¹ s⁻¹

B4: MtPDH (MtPDH1; Mt3g071980), Medicago truncatula prephenate dehydrogenase, wild type (Medicago truncatula) (protein)
chain: MSSSSKSLKIGIVGFGTFGQFLANTMIKQGHTLTATSRTDYSQLCDQMGIHFFRDITAFLDADMDVILLCTSISSLSEVVGSMPLACLKRPTLFVDVLSVKEHPKNLLLKVLPEESDILCTHPMFGPVSGKNGWQNLTFMFDKVRIKDEVTCSKFLQIFASEGCKMVEMSCEEHDKAAAKSQFITHTIGRTLAEMDIKSTPIDTKGFQTLVELKKPVMGCSFDLYSGLFVYNRFARQELENLEHALHKVKEMLVQRIDEGQNPERTES
Km [7]: 940 ± 40 µM
kcat [7]: 16.9 ± 1.1 s⁻¹
kcat/Km [7]: 18000 M⁻¹ s⁻¹
Km [8]: 50 ± 10 µM
kcat [8]: 18.5 ± 3 s⁻¹
kcat/Km [8]: 370000 M⁻¹ s⁻¹

B5: Medicago truncatula MtPDH variant C220D, SEQ ID NO: 1 (Medicago truncatula; C220D) (protein)
chain: MSSSSKSLKIGIVGFGTFGQFLANTMIKQGHTLTATSRTDYSQLCDQMGIHFFRDITAFLDADMDVILLCTSISSLSEVVGSMPLACLKRPTLFVDVLSVKEHPKNLLLKVLPEESDILCTHPMFGPVSGKNGWQNLTFMFDKVRIKDEVTCSKFLQIFASEGCKMVEMSCEEHDKAAAKSQFITHTIGRTLAEMDIKSTPIDTKGFQTLVELKKPVMGDSFDLYSGLFVYNRFARQELENLEHALHKVKEMLVQRIDEGQNPERTES
Km [9]: 270 ± 10 µM
kcat [9]: 46.8 ± 4.2 s⁻¹
kcat/Km [9]: 173000 M⁻¹ s⁻¹
Km [10]: 1530 ± 90 µM
kcat [10]: 0.5 ± 0.1 s⁻¹
kcat/Km [10]: 327 M⁻¹ s⁻¹

B6: Glycine max GmPDH1 variant N222D, SEQ ID NO: 2 (Glycine max; N222D) (protein)
chain: MSTSSSSQSLKIGIVGFGNFGQFLAKTMIKQGHTLTATSRSDYSELCLQMGIHFFRDVSAFLTADIDVIVLCTSILSLSEVVGSMPLTSLKRPTLFVDVLSVKEHPRELLLRELPEDSDILCTHPMFGPQTAKNGWTDHTFMYDKVRIRDEVICSNFIQIFATEGCKMVQMSCEEHDRAAAKSQFITHTIGRTLGEMDIQSTPIDTKGFETLVKLKETMMRDSFDLYSGLFVYNRFARQELENLEHALHKVKETLMIQRTNGEQGHKRTES
Km [11]: 530 ± 180 µM
kcat [11]: 27.8 ± 3.5 s⁻¹
kcat/Km [11]: 52400 M⁻¹ s⁻¹
Km [12]: 7580 ± 1130 µM
kcat [12]: 19.1 ± 1.4 s⁻¹
kcat/Km [12]: 2520 M⁻¹ s⁻¹

B7: Glycine max GmPDH1 variant N222A (Glycine max; N222A) (protein)
chain: MSTSSSSQSLKIGIVGFGNFGQFLAKTMIKQGHTLTATSRSDYSELCLQMGIHFFRDVSAFLTADIDVIVLCTSILSLSEVVGSMPLTSLKRPTLFVDVLSVKEHPRELLLRELPEDSDILCTHPMFGPQTAKNGWTDHTFMYDKVRIRDEVICSNFIQIFATEGCKMVQMSCEEHDRAAAKSQFITHTIGRTLGEMDIQSTPIDTKGFETLVKLKETMMRASFDLYSGLFVYNRFARQELENLEHALHKVKETLMIQRTNGEQGHKRTES
Km [13]: 190 ± 40 µM
kcat [13]: 6.6 ± 0.3 s⁻¹
kcat/Km [13]: 34700 M⁻¹ s⁻¹

B8: Glycine max GmPDH1 variant M219T (Glycine max; M219T) (protein)
chain: MSTSSSSQSLKIGIVGFGNFGQFLAKTMIKQGHTLTATSRSDYSELCLQMGIHFFRDVSAFLTADIDVIVLCTSILSLSEVVGSMPLTSLKRPTLFVDVLSVKEHPRELLLRELPEDSDILCTHPMFGPQTAKNGWTDHTFMYDKVRIRDEVICSNFIQIFATEGCKMVQMSCEEHDRAAAKSQFITHTIGRTLGEMDIQSTPIDTKGFETLVKLKETTMRNSFDLYSGLFVYNRFARQELENLEHALHKVKETLMIQRTNGEQGHKRTES
Km [14]: 1550 ± 140 µM
kcat [14]: 4.6 ± 0.3 s⁻¹
kcat/Km [14]: 2970 M⁻¹ s⁻¹
Km [15]: 100 ± 20 µM
kcat [15]: 30.3 ± 0.8 s⁻¹
kcat/Km [15]: 303000 M⁻¹ s⁻¹

B9: Glycine max GmPDH1 variant M219T/N222D (Glycine max; M219T/N222D) (protein)
chain: MSTSSSSQSLKIGIVGFGNFGQFLAKTMIKQGHTLTATSRSDYSELCLQMGIHFFRDVSAFLTADIDVIVLCTSILSLSEVVGSMPLTSLKRPTLFVDVLSVKEHPRELLLRELPEDSDILCTHPMFGPQTAKNGWTDHTFMYDKVRIRDEVICSNFIQIFATEGCKMVQMSCEEHDRAAAKSQFITHTIGRTLGEMDIQSTPIDTKGFETLVKLKETTMRDSFDLYSGLFVYNRFARQELENLEHALHKVKETLMIQRTNGEQGHKRTES
Km [16]: 630 ± 180 µM
kcat [16]: 29 ± 4.4 s⁻¹
kcat/Km [16]: 46000 M⁻¹ s⁻¹
Km [17]: 1180 ± 120 µM
kcat [17]: 2.5 ± 0.3 s⁻¹
kcat/Km [17]: 2120 M⁻¹ s⁻¹
